Test results published in article PMC4822036, “Rab35 GTPase couples cell division with initiation of epithelial apico-basal polarity and lumen opening” (Nature Communications, 2016).

Target: T1, 6xHis–Rab35^WT full-length (human, UniProt Q15286 1-201)
T1 construct: Rab35 GTPase, full-length, wild type; Exchanged with 1 mM GDP or 200 μM GTPγS before the pull-down; The species is not repeated for the His construct; also called 6xHis-tagged Rab35^WT; source: E. coli BL21 pLysS, purified (Ni-NTA Magnetic Agarose Beads)
T1 sequence (Q15286 whole entry): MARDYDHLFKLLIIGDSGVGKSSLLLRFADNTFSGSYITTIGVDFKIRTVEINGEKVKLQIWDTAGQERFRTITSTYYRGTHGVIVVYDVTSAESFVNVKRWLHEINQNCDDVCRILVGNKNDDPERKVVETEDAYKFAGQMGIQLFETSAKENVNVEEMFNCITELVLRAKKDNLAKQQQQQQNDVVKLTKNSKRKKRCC
Test: pull-down; GST–PODXL tail or GST on glutathione Sepharose 4B beads incubated with 6xHis-Rab proteins exchanged with 1 mM GDP or 200 μM GTPγS; 25 mM Tris pH 7.5, 50 mM NaCl, 10 mM MgCl2, 0.1% Triton X-100, 0.2% BSA; western blot with anti-6xHis
Conditions: both partners purified

binding result: binds
B1: GST–PODXL WT (aa 476–551) (domain or fragment, rabbit, UniProt Q28645 476-551, looked up)
chain: CHQRLSHRKDQQRLTEELQTVENGYHDNPTLEVMETSAEMQEKKVVNLNGELGDSWIVPLDNLTKDDLDEEEDTHL
notes: The species is not repeated for the GST construct; source: E. coli BL21 pLysS, purified (glutathione Sepharose 4B)
